The values below come from US20260265389A1 (CANTAI THERAPEUTICS, published 2026).

Experiment [1] concerns the target T1, IL-23 heterodimer (IL-23α & IL-12β) (Homo sapiens (Human), UniProt Q9NPF7 20-189; P29460 23-328).
T1 construct: also called heteromeric IL-23
T1 sequence 1: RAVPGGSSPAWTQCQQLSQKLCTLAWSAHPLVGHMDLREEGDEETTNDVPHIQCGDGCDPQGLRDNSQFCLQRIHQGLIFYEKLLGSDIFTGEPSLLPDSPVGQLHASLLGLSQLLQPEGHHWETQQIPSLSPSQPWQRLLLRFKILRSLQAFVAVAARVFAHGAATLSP
T1 sequence 2: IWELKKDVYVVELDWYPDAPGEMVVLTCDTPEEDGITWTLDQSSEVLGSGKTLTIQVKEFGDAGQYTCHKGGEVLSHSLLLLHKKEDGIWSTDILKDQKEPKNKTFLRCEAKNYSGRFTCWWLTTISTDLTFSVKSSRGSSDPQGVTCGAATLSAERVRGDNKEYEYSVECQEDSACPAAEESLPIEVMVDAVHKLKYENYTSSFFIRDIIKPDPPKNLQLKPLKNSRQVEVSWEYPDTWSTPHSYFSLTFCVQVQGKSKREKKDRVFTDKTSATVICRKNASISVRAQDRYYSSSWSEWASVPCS
The experiment can be described thus: BLI (Octet); how IL-23 was offered is not described. In general terms: BLI is a label-free optical method that tracks binding on a fibre tip over time.

Experiment [2] has as its target T2, biotinylated recombinant human TL1A (human, UniProt O95150 72-251, limits assumed, biotinylated (site not stated)).
T2 sequence: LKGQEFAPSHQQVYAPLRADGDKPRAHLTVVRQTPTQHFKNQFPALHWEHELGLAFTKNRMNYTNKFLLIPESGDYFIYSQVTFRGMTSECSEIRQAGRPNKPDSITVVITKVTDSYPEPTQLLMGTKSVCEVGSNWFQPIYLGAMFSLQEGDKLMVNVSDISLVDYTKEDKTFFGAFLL
The experiment is described as follows: BLI (Octet); by Example 12 biotinylated recombinant human TL1A on streptavidin sensors, dipped into the bispecific antibody for 0-300 s; the sheet does not name the loaded protein or the antibody concentration. As to the method:
Kinetic determination and assessment of pH dependency was performed on Octet BLI platform. Briefly, knob-in-hole bispecific antibodies that were prepared according to method described in Example 10 were used for this assay. Briefly, biotinylated recombinant human TL1A was diluted to 7.5 nM in kinetics buffer (1×PBS pH 7.4, 0.1% BSA, 0.05% Tween20, 0.05% sodium azide) and loaded onto streptavidin sensors for a period of 5 minutes. Sensors were then baselined in kinetics buffer before being dipped into bispecific antibodies diluted to varying concentrations, with two-fold serial dilutions for a 5-minute association step, followed by a 15-minute dissociation step. Top concentrations were determined based on approximate KD determined during a scouting experiment. Referencing was performed using a loaded sensor that was dipped into buffer as opposed to antibody, as well as unloaded sensors dipped into antibody. Then, data was aligned and fitted.

A further experiment concerns the target T3, monomeric TL1A (human, UniProt O95150 72-251, limits assumed).
T3 construct: also called TL1A monomer
T3 sequence: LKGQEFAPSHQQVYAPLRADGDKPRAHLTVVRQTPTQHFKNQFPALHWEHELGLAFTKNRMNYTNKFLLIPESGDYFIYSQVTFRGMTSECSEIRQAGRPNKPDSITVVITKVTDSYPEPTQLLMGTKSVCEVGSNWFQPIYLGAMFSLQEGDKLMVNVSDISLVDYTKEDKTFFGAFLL
The experiment can be described thus: SPR, antibody captured by anti-human IgG-Fc, TL1A monomer as analyte, pH 7.4; pH 7.4, monomeric TL1A as analyte. The method, then: Binding kinetic assays were performed for determining pH dependent binding activity of a lead TL1A binding antibody candidate, as identified in Example 3, and 7 different variants thereof using surface plasma resonance (SPR) spectroscopy. Each TL1A binding candidate comprised a VH sequence that comprised at least one modification in CDR or framework region of variable region of the VH sequence. Briefly, an amine-coupled anti-human IgG-Fc specific polyclonal antibody was immobilized on a SPR sensor chip. All TL1A binding antibody candidates were expressed at 1 mL scale in chinese hamster ovary (CHO) cells for 6 days, and supernatant was cleared of cells by centrifugation. To form a captured antibody array, TL1A binding antibody candidates were batch diluted to approximately 1.7-13.3 nM (either after Protein A purification or directly from CHO supernatant) and injected onto the chip. Non-regenerative kinetics were measured by injecting TL1A monomer starting at a concentration of 2.57E-10 M, with 6-fold increase in concentration up to 3.33E-07 M at pH 7.4 and 5.8, respectively. Likewise, non-regenerative kinetics were also measured for TL1A trimer starting at a concentration of 2.57E-10 M, with 6-fold increase in concentration up to 3.33E-07 M at pH 7.4. Each analyte injection flowed over the array at […] for a 5-minute association phase, followed by a 10-minute buffer dissociation phase. Binding was detected and relative capture response units (RU) were collected for each antibody on the surface.
(SPR reads the build-up and loss of mass on a sensor chip optically.)

B1: bispecific antibody candidate II-1 (bispecific antibody, IgG1, V domains shown)
VH 1: QVQLVQSGAEVKKPGSSVKVSCKASGGTFTIYAISWVRQAPGQGLEWMGGILPIFGTGHYVQKFQGRVTITADESTSTSYMELSSLRSEDTAVYYCAREPENWGQGTLVTVSS
VH 2: QVQLQESGPGLVEPSGTLSLTCAVSGGSISSRNWWSWVRQPPGKGLEWIGEIYHSGSTNYNPSLKSRVTISVDKSKNQFSLNLNSVTAADTAVYYCARDNDILTGYFDGYFDYWGQGTLVTVSS
VL: not shown
notes: hIgG1, 1:1 knob-in-hole; also called 11-1; knob-in-hole bispecific antibody
B1: the binding result in experiment [1] and in experiment [2] was “binds” throughout.

B2: bispecific antibody candidate II-2 (bispecific antibody, IgG1, V domains shown)
VH 1: QVQLVQSGAEVKKPGASVKVSCTASGDAFTGDSIHWVRQAPGQGLEWMGWITPNSGGTSYAQRFQGRVTLTRDTSISTVYMDLRRLRSDDTAVYFCASGLTVPFDYWGQGTLVTVSS
VH 2: QVQLQESGPGLVEPSGTLSLTCAVSGGSISSRNWWSWVRQPPGKGLEWIGEIYHSGSTNYNPSLKSRVTISVDKSKNQFSLNLNSVTAADTAVYYCARDNDILTGYFDGYFDYWGQGTLVTVSS
VL: not shown
notes: hIgG1, 1:1 knob-in-hole; also called 11-2; knob-in-hole bispecific antibody
B2: the binding result in experiment [1] and in experiment [2] was “binds” throughout.

B3: TL1A binding antibody candidate 8 of TABLE 47 (VH SEQ ID NO: 933, VL SEQ ID NO: 1768) (antibody, V domains shown)
VH: QVQLQESGPGLVEPSGTLSLTCAVSGGSISSRNWWSWVRQPPGKGLEWIGEIYHSGSTNYNPSLKSRVTISVDKSKNQFSLNLNSVTAADTAVYYCARDNDILTGYFDGYFDYWGQGTLVTVSS
VL: not shown
notes: It was expressed in CHO cells and captured by an anti-human IgG-Fc antibody (human IgG Fc)
In turn, B3 yielded a Kd with monomeric TL1A of 9.66 nM.

B4: TL1A binding antibody candidate 2 of TABLE 47 (VH SEQ ID NO: 903, VL SEQ ID NO: 1768) (antibody, V domains shown)
VH: QVQLQESGPGLVKPSGTLSLTCAVSGGSISSRNWWSWVRQPPGKGLEWIGEIYHSGSTNYNPSLKSRVTISVDKSKNQFSLNLNSVTAADTAVYYCARDNDILDGYFDGYFDYWGQGTLVTVSS
VL: not shown
notes: as for B3
In turn, B4 gave a Kd with monomeric TL1A of 5.53 nM.

B5: TL1A binding antibody candidate 1 of TABLE 47 (VH SEQ ID NO: 902, VL SEQ ID NO: 1768) (antibody, V domains shown)
VH: QVQLQESGPGLVKPSGTLSLTCAVSGGSISSRNWWSWVRQPPGKGLEWIGEIYHSGSTNYNPSLKSRVIISVDKSKNQFSLNLNSVTAADTAVYYCARDNDILTGYFDGYFDYWGQGTLVTVSS
VL: not shown
notes: as for B3
B5 had a Kd with monomeric TL1A of 6.46 nM.

B6: TL1A binding antibody candidate 6 of TABLE 47 (VH SEQ ID NO: 908, VL SEQ ID NO: 1768) (antibody, V domains shown)
VH: QVQLQESGPGLVKPSGTLSLTCAVSGGSISSRNWWSWVRQPPGKGLEWIGEIYHSGSTNYNPSLKSRVTISVDKSKNQFSLNVNSVTAADTAVYYCARDNDILTGYFDGYFDYWGQGTLVTVSS
VL: not shown
notes: as for B3
In the experiment with monomeric TL1A, B6 registered a Kd of 3.05 nM.

B7: TL1A binding antibody candidate 5 of TABLE 47 (VH SEQ ID NO: 907, VL SEQ ID NO: 1768) (antibody, V domains shown)
VH: QVQLQESGPGLVKPSGTLSLTCAVSGGSITSRNWWSWVRQPPGKGLEWIGEIYHSGSTNYNPSLKSRVTISVDKSKNQFSLNLNSVTAADTAVYYCARDNDILTGYFDGYFDYWGQGTLVTVSS
VL: not shown
notes: as for B3
Molecule B7 gave a Kd with monomeric TL1A of 5.19 nM.

B8: TL1A binding antibody candidate 7 of TABLE 47 (VH SEQ ID NO: 909, VL SEQ ID NO: 1768) (antibody, V domains shown)
VH: QVQLQESGPGLVKPSGTLSLTCAVSGGSISSRNWWSWVRQPPGKGLEWIGEIYHSGSTNYNPSLKSRVTISVDKSKNQFSLNLKSVTAADTAVYYCARDNDILTGYFDGYFDYWGQGTLVTVSS
VL: not shown
notes: as for B3
With B8, the Kd with monomeric TL1A is 4.57 nM.

The Kd is a measure of binding affinity in units of concentration. A lower Kd goes with tighter binding.
